Drawing on patent US20180051082A1, this text covers % Residual Binding for one substance.

Test [1] addresses cynomolgus FcRn (cynomolgus monkey) (UniProt Q8SPV9). Kind of test: BIACORE-based assay, antibody bound to FcRn at pH 6.0, residual bound antibody after adjustment to pH 7.4. (In general: SPR reads the build-up and loss of mass on a sensor chip optically.)
Another test addresses human FcRn (human) (UniProt P55899). The description is as above.

Sequence of cynomolgus FcRn (cynomolgus monkey) (Q8SPV9 24-297): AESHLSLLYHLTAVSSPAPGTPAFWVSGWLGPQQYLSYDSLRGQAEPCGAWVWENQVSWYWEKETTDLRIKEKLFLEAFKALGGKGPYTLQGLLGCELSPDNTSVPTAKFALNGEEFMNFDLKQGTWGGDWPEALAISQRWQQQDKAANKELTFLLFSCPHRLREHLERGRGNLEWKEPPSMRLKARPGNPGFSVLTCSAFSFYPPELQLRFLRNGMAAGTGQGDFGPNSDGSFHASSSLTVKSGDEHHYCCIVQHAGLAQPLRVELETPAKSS
Sequence of human FcRn (human) (P55899 24-297 limits assumed, chain 1 of 2): as the sequence (Q8SPV9 24-297) above, with D39N, Q44E, S99G, G189S, N190S, M217L, T269S counted along it
Sequence of human FcRn (human) (P61769 21-119 limits assumed, chain 2 of 2, further chain): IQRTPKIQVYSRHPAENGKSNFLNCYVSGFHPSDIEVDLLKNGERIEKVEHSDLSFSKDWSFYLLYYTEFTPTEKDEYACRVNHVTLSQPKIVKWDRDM

As to “human IgG1 version of BMS-936558, designated BMS (antibody)”, the % Residual Binding at pH 7.4 in test [1] came out at 1.7%; in the test with human FcRn (human), 2%.
